# Test results: article doi:10.1101/2025.09.22.677823
# Assays:
# [1] = target: Human adenovirus 7 fiber (human adenovirus 7); assay: cryo-EM structure
# [2] = target: Human adenovirus 7 penton base (human adenovirus 7); assay: cryo-EM structure
Substance,stoichiometry N [1],stoichiometry N [2]
Human adenovirus 7 fiber (natural protein),3,
Human adenovirus 7 penton base (natural protein),,5
